Reference: article PMC8718839 (iScience, 2021)

How the values were obtained:
[1] = target: T1, (ActRIIB)2-Fc (UniProt Q13705-1 19-137); assay: SPR
T1 sequence: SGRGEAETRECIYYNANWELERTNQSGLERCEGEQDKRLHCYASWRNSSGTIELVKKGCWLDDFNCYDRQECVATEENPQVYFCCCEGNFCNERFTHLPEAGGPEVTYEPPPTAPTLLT

[2] = target: T2, ActRIIB-Fc (UniProt Q13705 19-137); assay: SPR
T2 sequence: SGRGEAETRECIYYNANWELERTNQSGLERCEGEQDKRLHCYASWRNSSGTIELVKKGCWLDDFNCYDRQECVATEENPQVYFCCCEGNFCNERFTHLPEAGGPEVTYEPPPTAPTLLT

[3] = target: T3, ActRIIB-Alk4-Fc (human, UniProt Q13705;P36896); assay: SPR
T3 sequence 1: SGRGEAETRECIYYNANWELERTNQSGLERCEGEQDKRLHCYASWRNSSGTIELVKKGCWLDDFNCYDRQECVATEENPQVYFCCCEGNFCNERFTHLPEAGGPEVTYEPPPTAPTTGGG
T3 sequence 2: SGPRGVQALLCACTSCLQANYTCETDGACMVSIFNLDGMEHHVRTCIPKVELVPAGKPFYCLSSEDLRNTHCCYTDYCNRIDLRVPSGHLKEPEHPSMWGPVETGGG

[4] = target: the molecule itself; assay: crystal structure

B1: Activin A mature (ligand)
chain: GLECDGKVNICCKKQFFVSFKDIGWNDWIIAPSGYHANYCEGECPSHIAGTSGSSLSFHSTVINHYRMRGHSPFANLKSCCVPTKLRPMSMLYYDDGQNIIKKDIQNMIVEECGCS
Kd [1]: 0.0125 nM | Kd [2]: 0.108 nM | Kd [3]: 0.0304 nM | binding result [4]: binds

B2: GDF11 mature (ligand)
chain: NLGLDCDEHSSESRCCRYPLTVDFEAFGWDWIIAPKRYKANYCSGQCEYMFMQKYPHTHLVQQANPRGSAGPCCTPTKMSPINMLYFNDKQQIIYGKIPGMVVDRCGCS
Kd [1]: 0.00191 nM | Kd [2]: 0.0147 nM | Kd [3]: 0.00424 nM | binding result [4]: binds
